This assay addresses BG505_mut123_N241 SOSIP (HIV-1 (subtype A, BG505)) (UniProt Q2N0S6). The assay is described as follows: negative-stain EM.

B1: 13B Fab (Fab, V domains shown)
VH: LEESGGGLVQPEGSLTLTCKASGFDFSDYHVQWVRQSPGKGLEFIGGIAYTGNIYYASWAKGRFTISKTSSTTVTLQMTTLTAADTATYFCARAYGYASAPYAQYFNLWGPGTLVTVSS
VL: DIVMTQTPASVSEPVGGTVTINCQASQSRGNNYLSWYQQKPGQSPSLLIYRTSTLASGVPSRFKGSGSGTQFTLTISDLECADAATYYCLYGYYSSRNPDFAFGGGTEVVVK
B1 showed a percent of particles that were trimers with no Fab bound of 57% and a percent of particles with one Fab bound of 43%.
